The values that follow come from the supplement of paper PMC11246515.

± gives the standard deviation of the averaged measurements.

The data set is described as follows: total protein half-life in vivo (active degradation + dilution); higher = more stable protein.
The mark [1] stands for this setting: E. coli NCM3722 delta-smpB, growth: N-lim chemostat, doubling time 6 h.
Where [2] appears, read: wild type E. coli NCM3722, growth: N-lim chemostat, doubling time 12 h.
Where [3] appears, read: E. coli NCM3722 delta-clpP delta-lon delta-hslV, growth: N-lim chemostat, doubling time 6 h.
Where [4] appears, read: E. coli NCM3722 delta-clpP, growth: N-lim chemostat, doubling time 6 h.
The mark [5] stands for this setting: E. coli NCM3722 delta-hslV, growth: N-lim chemostat, doubling time 6 h.
[6] abbreviates: E. coli NCM3722 delta-lon, growth: N-lim chemostat, doubling time 6 h.
Setting [7] is: wild type E. coli NCM3722, growth: C-lim chemostat, doubling time 3 h.
Where [8] appears, read: wild type E. coli NCM3722, growth: C-lim chemostat, doubling time 6 h.
Setting [9] is: wild type E. coli NCM3722, growth: C-lim chemostat, doubling time 12 h.
Setting [10] is: wild type E. coli NCM3722, growth: N-lim chemostat, doubling time 6 h.
Where [11] appears, read: wild type E. coli NCM3722, growth: P-lim chemostat, doubling time 6 h.
The mark [12] stands for this setting: wild type E. coli NCM3722, growth: P-lim chemostat, doubling time 12 h.

As to “MTGQSSSQAATPIQWWKPALFFLVVIAGLWYVKWEPYYGKAFTAAETHSIGKSILAQADANPWQAALDYAMIYFLAVWKAAVLGVILGSLIQVLIPRDWLLRTLGQSRFRGTLLGTLFSLPGMMCTCCAAPVAAGMRRQQVSMGGALAFWMGNPVLNPATLVFMGFVLGWGFAAIRLVAGLVMVLLIATLVQKWVRETPQTQAPVEIDIPEAQGGFFSRWGRALWTLFWSTIPVYILAVLVLGAARVWLFPHADGAVDNSLMWVVAMAVAGCLFVIPTAAEIPIVQTMMLAGMGTAPALALLMTLPAVSLPSLIMLRKAFPAKALWLTGAMVAVSGVIVGGLALLF”, the “total protein half-life in vivo” value under setting [1] was determined as 4.43 ± 0.43 h and the “total protein half-life in vivo” value under setting [2] was 5.72 h.

As for “MSRRAGTPTAKKVTQLVNVEEHVEGFRQVREAHRRELIDDYVELISDLIREVGEARQVDMAARLGVSQPTVAKMLKRLATMGLIEMIPWRGVFLTAEGEKLAQESRERHQIVENFLLVLGVSPEIARRDAEGMEHHVSEETLDAFRLFTQKHGAK [P0A9F1]”, the “total protein half-life in vivo” value under setting [3] came to 5.72 ± 0.35 h; the “total protein half-life in vivo” value under setting [4] came to 5.64 ± 0.32 h; the “total protein half-life in vivo” value under setting [5] stood at 4.73 ± 0.12 h; the “total protein half-life in vivo” value under setting [6] was found to be 6 ± 0.3 h; the “total protein half-life in vivo” value under setting [1] is 5.06 ± 0.61 h; the “total protein half-life in vivo” value under setting [7] amounted to 3 ± 0.046 h. Further, the “total protein half-life in vivo” value came out at 5.03 ± 0.24 h under setting [8]; 12 ± 5.5 h under setting [9]; 4.66 ± 0.23 h under setting [10]; 9.78 ± 2.5 h under setting [2]; 3.96 ± 0.21 h under setting [11]; 8.06 ± 0.26 h under setting [12].

“MEKKHIYLFCSAGMSTSLLVSKMRAQAEKYEVPVIIEAFPETLAGEKGQNADVVLLGPQIAYMLPEIQRLLPNKPVEVIDSLLYGKVDGLGVLKAAVAAIKKAAAN”: the “total protein half-life in vivo” value by setting is: under setting [3], 4.43 ± 0.066 h; under setting [4], 3.28 ± 0.13 h; under setting [5], 2.92 ± 0.14 h; under setting [6], 4.05 ± 0.47 h; under setting [1], 3.16 ± 0.091 h; under setting [7], 2.72 ± 0.065 h. The “total protein half-life in vivo” value under setting [8] was 3.64 ± 0.58 h; the “total protein half-life in vivo” value under setting [9] turned out to be 6 ± 0.41 h; the “total protein half-life in vivo” value under setting [10] came to 2.82 ± 0.2 h; the “total protein half-life in vivo” value under setting [2] worked out at 4.37 ± 1 h; the “total protein half-life in vivo” value under setting [11] came to 4.042 ± 0.031 h; the “total protein half-life in vivo” value under setting [12] stood at 7.9 ± 0.83 h.

In the case of “MKTRTQQIEELQKEWTQPRWEGITRPYSAEDVVKLRGSVNPECTLAQLGAAKMWRLLHGESKKGYINSLGALTGGQALQQAKAGIEAVYLSGWQVAADANLAASMYPDQSLYPANSVPAVVERINNTFRRADQIQWSAGIEPGDPRYVDYFLPIVADAEAGFGGVLNAFELMKAMIEAGAAAVHFEDQLASVKKCGHMGGKVLVPTQEAIQKLVAARLAADVTGVPTLLVARTDADAADLITSDCDPYDSEFITGERTSEGFFRTHAGIEQAISRGLAYAPYADLVWCETSTPDLELARRFAQAIHAKYPGKLLAYNCSPSFNWQKNLDDKTIASFQQQLSDMGYKFQFITLAGIHSMWFNMFDLANAYAQGEGMKHYVEKVQQPEFAAAKDGYTFVSHQQEVGTGYFDKVTTIIQGGTSSVTALTGSTEESQF [P0A9G6]”, the “total protein half-life in vivo” value runs as follows: under setting [3], 3.78 ± 0.38 h; under setting [4], 3.26 ± 0.34 h; under setting [5], 2.33 ± 0.14 h; under setting [6], 2.71 ± 0.22 h; under setting [1], 2.51 ± 0.07 h; under setting [7], 3.19 ± 0.085 h. Also, the “total protein half-life in vivo” value by setting is: under setting [8], 4.78 ± 0.25 h; under setting [9], 7.76 ± 0.96 h; under setting [10], 3.01 ± 0.6 h; under setting [2], 3.15 ± 0.29 h; under setting [11], 5.05 ± 0.28 h; under setting [12], 11.2 ± 3.2 h.

Consider “MGNSDRKPGLIKRLWKWWRTPSRLALGTLLLIGFVGGIVFWGGFNTGMEKANTEEFCISCHEMRNTVYQEYMDSVHYNNRSGVRATCPDCHVPHEFVPKMIRKLKASKELYGKIFGVIDTPQKFEAHRLTMAQNEWRRMKDNNSQECRNCHNFEYMDTTAQKSVAAKMHDQAVKDGQTCIDCHKGIAHKLPDMREVEPGF [P0ABL5]”, for which the “total protein half-life in vivo” value by setting is: under setting [4], 4.79 h; under setting [1], 5.22 ± 1.8 h; under setting [8], 3.97 h; under setting [9], 9.62 h; under setting [12], 8.81 h.

With “MQFLNMFFFDIYPYIAGAVFLIGSWLRYDYGQYTWRAASSQMLDRKGMNLASNLFHIGILGIFVGHFFGMLTPHWMYEAWLPIEVKQKMAMFAGGASGVLCLIGGVLLLKRRLFSPRVRATTTGADILILSLLVIQCALGLLTIPFSAQHMDGSEMMKLVGWAQSVVTFHGGASQHLDGVAFIFRLHLVLGMTLFLLFPFSRLIHIWSVPVEYLTRKYQLVRARH”, under setting [2], the “total protein half-life in vivo” value is greater than 16 h.

Turning to “MRACINNQQIRHHNKCVILELLYRQKRANKSTLARLAQISIPAVSNILQELESEKRVVNIDDESQTRGHSSGTWLIAPEGDWTLCLNVTPTSIECQVANACLSPKGEFEYLQIDAPTPQALLSEIEKCWHRHRKLWPDHTINLALAIHGQVDPVTGVSQTMPQAPWTTPVEVKYLLEEKLGIRVMVDNDCVMLALAEKWQNNSQERDFCVINVDYGIGSSFVINEQIYRGSLYGSGQIGHTIVNPDGVVCDCGRYGCLETVASLSALKKQARVWLKSQPVSTQLDPEKLTTAQLIAAWQSGEPWITSWVDRSANAIGLSLYNFLNILNINQIWLYGRSCAFGENWLNTIIRQTGFNPFDRDEGPSVKATQIGFGQLSRAQQVLGIGYLYVEAQLRQI”, the “total protein half-life in vivo” value runs as follows: under setting [3], 6.39 ± 0.56 h; under setting [4], 6.61 h; under setting [5], 5.18 ± 0.99 h; under setting [6], 5.81 ± 0.79 h; under setting [1], 3.95 ± 0.094 h; under setting [7], greater than 4 h. For the same sequence, the “total protein half-life in vivo” value reads like this: under setting [8], 1.97 h; under setting [9], 3 h; under setting [10], 5.48 ± 0.83 h; under setting [2], 7.97 h; under setting [11], 3.12 h; under setting [12], 4.85 h.
